According to paper PMC6901440:

Biological target: Bcl-2 recombinant protein, P10415
Test: in vitro binding of Bcl-2 recombinant protein to immunoprecipitated Flag-GSDMD, western blot with band values printed under the Bcl-2 blot
Conditions: chain shown with the change; incubated for one hour, then heavily washed; parent: 1

Bcl-2 recombinant protein, P10415, sequence (P10415 whole entry): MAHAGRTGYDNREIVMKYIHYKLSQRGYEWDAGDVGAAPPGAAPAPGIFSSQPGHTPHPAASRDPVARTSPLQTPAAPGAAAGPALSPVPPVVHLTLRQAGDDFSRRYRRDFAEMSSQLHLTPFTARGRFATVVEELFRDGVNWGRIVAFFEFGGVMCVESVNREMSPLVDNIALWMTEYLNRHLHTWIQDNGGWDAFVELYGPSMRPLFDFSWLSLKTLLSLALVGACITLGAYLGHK

B1: Flag-GSDMD full length, P57764 L150Q (protein)
chain: MGSAFERVVRRVVQELDHGGEFIPVTSLQSSTGFQPYCLVVRKPSSSWFWKPRYKCVNLSIKDILEPDAAEPDVQRGRSFHFYDAMDGQIQGSVELAAPGQAKIAGGAAVSDSSSTSMNVYSLSVDPNTWQTLLHERHLRQPEHKVLQQQRSRGDNVYVVTEVLQTQKEVEVTRTHKREGSGRFSLPGATCLQGEGQGHLSQKKTVTIPSGSTLAFRVAQLVIDSDLDVLLFPDKKQRTFQPPATGHKRSTSEGAWPQLPSGLSMMRCLHNFLTDGVPAEGAFTEDFQGLRAEVETISKELELLDRELCQLLLEGLEGVLRDQLALRALEEALEQGQSLGPVEPLDGPAGAVLECLVLSSGMLVPELAIPVVYLLGALTMLSETQHKLLAEALESQTLLGPLELVGSLLEQSAPWQERSTMSLPPGLLGNSWGEGAPAWVLLDECGLELGEDTPHVCWEPQAQGRMCALYASLALLSGLSQEPH
  ratio to parent: 0.45
